Each block holds one binder with its values, some of them ahead of it.
What was measured:
Human MUC16-His = molecular target: T1, Human MUC16-His (human); assay: BLI (ForteBio Octet RED96), antibody on AHC sensor, 50 nM antigen, 1:1 model
T1 construct: The entry includes the C-terminal 6xHis tag; also called membrane-proximal end of the extracellular region of the human MUC16 protein; Human MUC16 protein
T1 chain: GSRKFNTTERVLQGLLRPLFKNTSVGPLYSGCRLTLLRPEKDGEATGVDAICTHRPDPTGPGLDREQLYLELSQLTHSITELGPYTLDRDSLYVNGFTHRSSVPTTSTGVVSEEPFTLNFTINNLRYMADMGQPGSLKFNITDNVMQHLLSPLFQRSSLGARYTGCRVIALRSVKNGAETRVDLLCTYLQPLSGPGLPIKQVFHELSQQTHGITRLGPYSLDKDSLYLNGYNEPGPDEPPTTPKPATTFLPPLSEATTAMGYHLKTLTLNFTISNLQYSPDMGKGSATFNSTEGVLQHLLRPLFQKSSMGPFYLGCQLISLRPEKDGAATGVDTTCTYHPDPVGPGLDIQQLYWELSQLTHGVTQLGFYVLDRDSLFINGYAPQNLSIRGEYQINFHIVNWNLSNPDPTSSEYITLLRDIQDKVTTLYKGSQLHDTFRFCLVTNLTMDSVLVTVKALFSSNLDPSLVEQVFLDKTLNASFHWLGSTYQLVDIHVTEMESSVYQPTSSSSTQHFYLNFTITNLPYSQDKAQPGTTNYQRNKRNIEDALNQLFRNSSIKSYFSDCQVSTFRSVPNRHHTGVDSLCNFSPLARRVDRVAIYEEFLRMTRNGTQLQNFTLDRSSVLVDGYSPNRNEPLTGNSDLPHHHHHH
From the text: (§1) The binding affinity of the anti-MUC-16 antibodies for the membrane-proximal end of the extracellular region of the human MUC16 protein (human MUC16-His, Table 26) and the membrane-proximal end of the extracellular region of the rhesus monkey MUC16 protein (rhesus monkey MUC16-His, Table 26) was detected by ForteBio Octet RED96, respectively. According to the manufacturer's instructions, an AHC sensor (ForteBio, Cat #18-5060) was placed in a running buffer (lx PBS, Hyclone, Cat #SH30256.01, containing 0.02% Tween 20, pH 7.0) and pre-equilibrated at room temperature for 10 min. In a 96-well plate, the kinetic assay was performed according to the following steps: a) equilibrating the baseline for 100 s with the running buffer; b) diluting the anti-MUC-16 antibodies with the running buffer to 5 μg/mL, immobilizing for 200 s, and stopping; c) equilibrating the baseline for 300 s with the running buffer; and d) diluting the human or rhesus monkey MUC16 protein with the running buffer to 50 nM, binding for 200 s, and dissociating for 600 s. The experimental data were fitted and calculated using a Fortebio Data Analysis software 1:1 binding model.

Rhesus monkey MUC16-His = molecular target: T2, Rhesus monkey MUC16-His (rhesus monkey); assay: as above
T2 construct: The entry includes the C-terminal 6xHis tag; also called membrane-proximal end of the extracellular region of the rhesus monkey MUC16 protein
T2 chain: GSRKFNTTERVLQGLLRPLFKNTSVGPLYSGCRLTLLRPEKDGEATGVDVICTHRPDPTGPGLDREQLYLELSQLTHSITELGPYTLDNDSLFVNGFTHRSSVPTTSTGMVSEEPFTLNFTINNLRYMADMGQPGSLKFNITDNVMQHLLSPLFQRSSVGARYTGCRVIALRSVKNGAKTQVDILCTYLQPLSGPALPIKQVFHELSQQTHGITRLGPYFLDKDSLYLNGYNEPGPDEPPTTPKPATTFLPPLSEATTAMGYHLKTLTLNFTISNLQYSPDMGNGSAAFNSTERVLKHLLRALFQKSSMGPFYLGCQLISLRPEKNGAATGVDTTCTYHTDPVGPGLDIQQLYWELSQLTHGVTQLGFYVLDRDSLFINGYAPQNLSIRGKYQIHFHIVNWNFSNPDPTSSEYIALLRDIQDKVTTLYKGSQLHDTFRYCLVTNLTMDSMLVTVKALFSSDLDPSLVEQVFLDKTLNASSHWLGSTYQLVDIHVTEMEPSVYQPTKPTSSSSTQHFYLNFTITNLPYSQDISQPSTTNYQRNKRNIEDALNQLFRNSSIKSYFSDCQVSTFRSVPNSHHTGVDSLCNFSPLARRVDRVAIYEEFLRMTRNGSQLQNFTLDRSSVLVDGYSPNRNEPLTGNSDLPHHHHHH
From the text: as §1

[1] = molecular target: T3, human MUC16 protein (ECT_TM huMuc16) on 293T cells (human); assay: flow cytometry, 293T/hMUC16 cells, PE anti-human IgG Fc secondary, MFI; EC50 table under the plot, unit from the axis Conc.(nM)
T3 chain: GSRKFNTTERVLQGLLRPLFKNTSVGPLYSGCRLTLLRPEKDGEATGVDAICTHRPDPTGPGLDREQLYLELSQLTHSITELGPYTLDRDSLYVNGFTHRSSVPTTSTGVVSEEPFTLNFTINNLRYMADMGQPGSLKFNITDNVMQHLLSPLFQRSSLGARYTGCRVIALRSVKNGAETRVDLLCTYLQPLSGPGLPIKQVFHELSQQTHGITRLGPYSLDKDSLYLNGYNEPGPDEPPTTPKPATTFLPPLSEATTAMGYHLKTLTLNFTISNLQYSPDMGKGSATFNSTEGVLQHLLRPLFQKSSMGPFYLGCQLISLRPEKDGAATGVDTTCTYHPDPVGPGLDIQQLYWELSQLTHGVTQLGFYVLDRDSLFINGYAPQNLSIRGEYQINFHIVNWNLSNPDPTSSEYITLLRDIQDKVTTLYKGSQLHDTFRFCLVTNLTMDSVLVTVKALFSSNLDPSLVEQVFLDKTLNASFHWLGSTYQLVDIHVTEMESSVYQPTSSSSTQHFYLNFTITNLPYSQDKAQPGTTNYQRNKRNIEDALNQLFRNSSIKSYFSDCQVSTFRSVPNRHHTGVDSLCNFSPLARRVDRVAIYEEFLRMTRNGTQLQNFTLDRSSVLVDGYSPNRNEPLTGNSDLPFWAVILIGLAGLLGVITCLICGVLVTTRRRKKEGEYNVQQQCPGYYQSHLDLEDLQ
Protocol: (§2) The serially diluted anti-human MUC16 antibodies (at an initial concentration of 200 nM, 4-fold dilution, 8 points in total) obtained in the present application were added to the cells, and the cells were incubated at 4° C. for 30 min. The cells were washed twice with PBS, and then fluorescent secondary antibody R-PE-conjugated AffiniPure Goat Anti-Human IgG, Fcγ Fragment Specific (Jackson ImmunoResearch, Cat #109-116-098) was added. The cells were incubated at 4° C. for 30 min. The cells were washed twice with PBS and then resuspended, and finally, fluorescence signals were detected using a BD Accuri C5 (BD Bioscience) flow cytometer.

[2] = molecular target: T4, rhesus monkey MUC16 protein (ECT_TM RhMuc16) on 293T cells (rhesus monkey); assay: flow cytometry, 293T/rhesus MUC16 cells, PE anti-human IgG Fc secondary, MFI; EC50 table under the plot, unit from the axis Conc.(nM)
T4 chain: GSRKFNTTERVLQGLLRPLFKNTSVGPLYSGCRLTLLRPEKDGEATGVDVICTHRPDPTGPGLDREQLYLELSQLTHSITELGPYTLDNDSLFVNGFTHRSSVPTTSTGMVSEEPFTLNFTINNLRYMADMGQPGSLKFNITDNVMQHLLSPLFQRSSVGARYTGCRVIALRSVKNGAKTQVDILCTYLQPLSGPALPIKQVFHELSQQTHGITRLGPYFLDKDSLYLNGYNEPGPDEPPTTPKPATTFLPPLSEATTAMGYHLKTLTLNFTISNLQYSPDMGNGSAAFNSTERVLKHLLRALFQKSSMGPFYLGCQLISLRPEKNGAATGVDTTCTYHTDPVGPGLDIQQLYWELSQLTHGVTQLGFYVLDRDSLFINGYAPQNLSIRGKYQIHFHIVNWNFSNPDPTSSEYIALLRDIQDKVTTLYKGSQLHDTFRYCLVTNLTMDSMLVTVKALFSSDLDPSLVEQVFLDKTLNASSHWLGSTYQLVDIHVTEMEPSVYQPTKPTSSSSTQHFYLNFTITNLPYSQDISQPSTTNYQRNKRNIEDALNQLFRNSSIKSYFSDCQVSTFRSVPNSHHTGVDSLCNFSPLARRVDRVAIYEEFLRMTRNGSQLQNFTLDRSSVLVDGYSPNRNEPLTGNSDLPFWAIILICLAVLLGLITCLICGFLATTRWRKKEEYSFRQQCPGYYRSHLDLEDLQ
Protocol: as §2

human GPRC5D protein = molecular target: T5, human GPRC5D protein (human, UniProt Q9NZD1 1-345); assay: flow cytometry, HEK293T-HuGPRC5D cells (sheet: 293T-huGPRC5D), PE anti-human IgG Fc secondary, MFI
T5 construct: NCI-H929 cells express it endogenously in the functional assays; also called HuGPRC5D; huGPRC5D
T5 sequence (Q9NZD1 whole entry): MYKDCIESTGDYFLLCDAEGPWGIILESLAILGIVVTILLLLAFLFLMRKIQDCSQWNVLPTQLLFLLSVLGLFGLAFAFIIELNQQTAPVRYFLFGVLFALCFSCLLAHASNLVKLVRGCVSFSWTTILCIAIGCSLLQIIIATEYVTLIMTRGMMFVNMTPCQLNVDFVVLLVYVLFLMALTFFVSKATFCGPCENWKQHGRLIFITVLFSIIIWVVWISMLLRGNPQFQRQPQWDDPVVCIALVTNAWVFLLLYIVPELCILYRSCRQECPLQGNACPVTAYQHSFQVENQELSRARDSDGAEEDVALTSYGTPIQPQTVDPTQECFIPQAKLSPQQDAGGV
Protocol: (§3) Whether the anti-GPRC5D chimeric antibodies in the present invention could bind to the human GPRC5D protein or cynomolgus monkey GPRC5D protein stably expressed on the cell surface was determined by cell binding experiments.
(§4) The HEK293T-HuGPRC5D cell line and HEK293T-CynoGPRC5D shown in Table 2 were subjected to enzymatic digestion to obtain single cell suspensions of the two types of cells. The single cell suspensions were centrifuged at room temperature at 400×g, and then the media were discarded. The resulting cell pellets were washed once with PBS and then resuspended in the serially diluted anti-GPRC5D chimeric antibodies shown in Table 5 and the control antibody GC5B596 (at an initial concentration of 133.3 nM, 4-fold gradient dilution, 8 concentrations in total), and the cells were incubated at 4° C. for 30 min. The cells were washed once with PBS, and then fluorescent secondary antibody R-PE-conjugated AffiniPure Goat Anti-Human IgG, Fcγ Fragment Specific (Jackson ImmunoResearch, Cat #109-116-098) diluted in a 1:200 ratio was added. The cells were incubated in the dark at 4° C. for 30 min. The cells were washed twice with PBS and then resuspended, and finally, two-channel fluorescence signals were detected using a BD Accuri C5 (BD Bioscience) flow cytometer.

[3] = molecular target: T6, cynomolgus monkey GPRC5D protein (cynomolgus monkey, UniProt Q9NZD1 1-343 (human entry)); assay: flow cytometry, HEK293T-CynoGPRC5D cells (sheet: 293T-cynoGPRC5D), PE anti-human IgG Fc secondary, MFI
T6 construct: also called CynoGPRC5D; on HEK293T-CynoGPRC5D cells
T6 chain: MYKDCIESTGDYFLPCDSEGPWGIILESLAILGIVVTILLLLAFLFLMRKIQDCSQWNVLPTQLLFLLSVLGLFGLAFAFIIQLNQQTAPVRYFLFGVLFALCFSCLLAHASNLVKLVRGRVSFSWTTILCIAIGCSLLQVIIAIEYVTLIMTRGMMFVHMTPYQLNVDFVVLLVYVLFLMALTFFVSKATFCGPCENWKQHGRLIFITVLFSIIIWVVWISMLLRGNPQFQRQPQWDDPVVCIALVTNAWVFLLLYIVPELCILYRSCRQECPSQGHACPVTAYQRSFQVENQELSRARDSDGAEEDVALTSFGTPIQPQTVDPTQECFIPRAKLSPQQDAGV
Protocol: as §3, §4

B2: chimeric antibody 4B9E9 (antibody, human IgG1, kappa, V domains shown)
VH: DVQLVESGGGLVQPRGSRKLSCAASGFTFSSFGMHWVRQAPEKGLEWVAYISSDSNTIYYADTVQGRFTISRDNPKNTLFLQMTRLRSEDTAMYYCARNPWYFDVWGAGTTVTVSS
VL: DVLMTQTPLSLPVSLGDQVSISCRSSQSIVHSNGNTYLEWFLQKPGQSPKLLIYKVSNRFSGVPDRFSGSGSGTDFTLKISRVEAEDLGIYYCFQGSHIPPTFGGGTKLEIKR
notes: Murine variable regions on human IgG1 and kappa constant regions
EC50 (read off the curve) (human GPRC5D protein): ~3 nM | binding result [3]: binds

B3: chimeric antibody 29H12C9 (antibody, human IgG1, kappa, V domains shown)
VH: QVQLQQPGAELVKPGASVKLSCKASGYTFTTHYMYWVKQRPGQGLEWIGGINPSNGATNFNEKFKTKATLTVDKSSSTAYMQLSSLTSEDSAVYYCTRVGGLSYTMDYWGQGTSVTVSS
VL: DIVMSQSPSSLAVSVGEKVSMSCKSSQSLLYSSNQKNYLAWYQQKPGQSPKLLIYWASTRESGVPDRFTGSGYGTDFTLTISSMKAEDLAVYYCQQYYSYPRTFGGGTKLDIKR
notes: also called murine chimeric antibody 29H12C9; murine control antibody (29H12C9)
EC50 (read off the curve) (human GPRC5D protein): ~3 nM | EC50 (read off the curve) [3]: ~3 nM

Further lines, results first:

Kd (Human MUC16-His): 0.359 nM | koff (Human MUC16-His): 0.000168 s⁻¹ | kon (Human MUC16-His): 468000 M⁻¹ s⁻¹ | Kd (Rhesus monkey MUC16-His): 1.82 nM | koff (Rhesus monkey MUC16-His): 0.00156 s⁻¹ | kon (Rhesus monkey MUC16-His): 856000 M⁻¹ s⁻¹ | EC50 [1]: 2.58 nM | EC50 [2]: 4.87 nM
B1: murine anti-MUC16 antibody 776.1 (antibody, human IgG1, kappa, L234A L235A, V domains shown)
VH: EVQLQQSGPELVKPGASVKISCKASGYTFTDYNIHWVKQSHGKILEWIGYIYPYNGVSDYNQNFKSKATLIVDNSSNTAYMELRSLTSEDSAVYYCARWDFGSGYYFDYWGQGTTLTVSS
VL: QIVLSQSPAILFASPGETVTMTCRASSSVIYMCWNQQKPGSSPKPWIYGTSTLASGVPTRFSGSGSGTSYSLTISRVEAEDAATYYCQQWSSNPFTFGSGTKLEIKR
notes: Murine variable regions on human IgG1 (L234A, L235A, D265A, P329A) and kappa constant regions

EC50 (read off the curve) (human GPRC5D protein): ~3 nM | EC50 (read off the curve) [3]: ~4 nM
B4: chimeric antibody 39A9F1 (antibody, human IgG1, kappa, V domains shown)
VH: QVQLQQPGAELVKPGSSVKLSCKASGYTFTTYWMEWVKQRPGQGLEWIGEINPNNGRSNYNEKFQTKATLTVDKSSSTAYMQFSSLTSEDSAVYYCARERAGLTYWGQGTLVIVSA
VL: DVVMTQTPLSLPVSLGDQASISCRSSQSLVHSNGNTYLHWYLQKPGQSPKLLIYKVSNRFSGVPDRFGGSGSGTDFTLKISRVEAEDLGVYFCSQSTHFPYTFGGGTKLEIKR
notes: as for B2
